Assay results taken from paper doi:10.1101/2025.09.11.674065.

Target: His6-AstR (Acinetobacter baumannii ATCC 17978VU)
Assay: SEC; size exclusion chromatography with standard curves; purified His6-AstR; Size Exclusion Buffer 50 mM Tris, 300 mM NaCl, pH 8

stoichiometry N: 2
Substance: His6-AstR (natural protein)
